According to patent US20230014722A1 (CSTONE PHARMACEUTICALS, published 2023):
Each block holds one binder with its values, some of them ahead of it.

Columns and labels:
hPD-1.His = biological target: T1, hPD-1.His (human, UniProt Q15116 25-170); test: SPR (ProteOn XPR36), antibody captured on Protein A, PD-1.His as analyte, 1:1 fit
T1 construct: the SPR text says only human PD-1; also called human PD-1 (SPR analyte)
Text: (§1) Antibodies were characterized for affinity and binding kinetics to PD-1 by SPR assay using ProteOn XPR36 (Bio-Rad). Protein A protein (Sigma) was immobilized to a GLM sensor chip (Bio-Rad) through amine coupling. Purified antibodies were flowed over the sensor chip and captured by the Protein A. The chip was rotated […] and washed with running buffer (1×PBS/0.01% Tween20, Bio-Rad) until the baseline was stable. Seven concentrations of human PD-1 and running buffer were flowed through the sensor chip at a flow rate of 30 μL/min for an association phase of 180 s, followed by 300s dissociation. After regeneration, seven concentration of mouse PD-1 and running buffer were flowed through the sensor chip at a flow rate of 30 μL/min for an association phase of 180 s, followed by 300 s dissociation. The chip was regenerated with pH 1.5 H₃PO₄ after each run. The association and dissociation curve was fit by 1:1 Langmuir binding model using ProteOn software.

mPD-1.His = biological target: T2, mPD-1.His (mouse, UniProt Q02242 25-167, limits assumed); test: as above
T2 construct: Soluble analyte, probably the extracellular domain; also called mouse PD-1 (SPR analyte)
T2 sequence (looked up): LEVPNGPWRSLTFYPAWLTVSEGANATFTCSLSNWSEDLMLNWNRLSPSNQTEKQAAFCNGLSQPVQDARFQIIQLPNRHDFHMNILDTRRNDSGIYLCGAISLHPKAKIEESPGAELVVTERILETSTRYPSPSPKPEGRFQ
Text: as §1

[1] = biological target: T3, mouse PD-1 on transfected 293F cells (mouse, UniProt Q02242 25-288); test: flow cytometry on 293F cells expressing mouse PD-1, quantitative beads
T3 construct: whole, on cells; also called cell surface mouse PD-1
T3 sequence (looked up): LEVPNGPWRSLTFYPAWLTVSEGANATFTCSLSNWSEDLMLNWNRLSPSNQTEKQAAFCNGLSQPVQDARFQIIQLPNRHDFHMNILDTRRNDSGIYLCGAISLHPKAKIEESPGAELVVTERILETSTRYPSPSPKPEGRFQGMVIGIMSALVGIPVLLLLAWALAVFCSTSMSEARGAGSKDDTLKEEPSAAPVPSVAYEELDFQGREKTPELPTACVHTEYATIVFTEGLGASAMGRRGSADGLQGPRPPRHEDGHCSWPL
Protocol: (§2) Testing antibodies were 1:2 serially diluted in wash buffer (1×PBS/1% BSA) and incubated with cells at 4° C. for 1 h.

[2] = biological target: T4, human CTLA-4 on a constructed cell line (human, UniProt P16410 36-223); test: FACS, CTLA-4.293F cells, one antibody concentration (not given)
T4 construct: whole, on cells
Protocol: (§3) Constructed cell lines that respectively express human PD-1, CD28, CTLA-4 or ICOS were transferred in to 96-well U-bottom plates (BD) at a density of 2×10⁵ cells/well. Testing antibodies were diluted in wash buffer (1×PBS/1% BSA) and incubated with cells at 4° C. for 1 h. After washing, the secondary antibody goat anti-human IgG Fc FITC (Jackson ImmunoResearch Lab) was added and incubated at 4° C. in the dark for 1 h. The cells were then washed once and resuspended in 1×PBS/1% BSA, and analyzed by flow cytometery (BD) and FlowJo software.

[3] = biological target: T5, human PD-1 (Sino Biological), coated on plates (human, UniProt Q15116 25-167); test: ELISA, plates coated with human PD-1 at 1 µg/ml
T5 construct: whole entry named
Protocol: (§4) For ELISA, plates (Nunc) were coated with human, cynomolgus or mouse PD-1 (Sino Biological) at 1 μg/ml overnight at 4° C. After blocking and washing, antibodies were serially diluted in blocking buffer and added to the plates and incubated at room temperature for 1 h. The plates were then washed and subsequently incubated with secondary antibody goat anti human IgG HRP (Bethyl) for 1 h. After washing, TMB substrate was added and the reaction was stopped by 2 M HCl. The absorbance at 450 nm was read using a microplate reader (Molecular Device).

[4] = biological target: T6, mouse PD-1 (Sino Biological), coated on plates (mouse, UniProt Q02242 25-167); test: ELISA, plates coated with mouse PD-1 at 1 µg/ml
T6 sequence (looked up): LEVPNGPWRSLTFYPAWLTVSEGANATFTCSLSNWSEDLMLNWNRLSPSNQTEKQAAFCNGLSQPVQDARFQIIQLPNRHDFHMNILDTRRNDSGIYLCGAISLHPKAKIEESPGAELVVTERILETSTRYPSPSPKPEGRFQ
Protocol: as §4

[5] = biological target: T7, human PD-1 on transfected cells (human, UniProt Q15116 25-288); test: flow cytometry on CHO-S cells expressing human PD-1, quantitative beads
T7 construct: also called CHO-S cells expressing human PD-1; human PD-1 transfected CHO-S cells
Protocol: as §2

[6] = biological target: T7, human PD-1 on transfected cells; test: FACS blocking assay: mouse Fc fusion-human PD-L1 binding to human PD-1 transfected CHO-S cells
[7] = biological target: T7, human PD-1 on transfected cells; test: FACS competition on CHO-S cells expressing human PD-1 against biotinylated Keytruda at 1 µg/ml
Protocol: (§5) The cells were washed and the second antibody Streptavidin-PE were added and incubated for 30 min at 4° C. The cells were then washed once and resuspended in 1×PBS/1% BSA, and analyzed by flow cytometery (BD).

[8] = biological target: cynomolgus PD-1 (Sino Biological), coated on plates (cynomolgus, UniProt B0LAJ3 25-170); test: ELISA, plates coated with cynomolgus PD-1 at 1 µg/ml
Protocol: as §4

[9] = biological target: T8, human CD28 on a constructed cell line (human, UniProt P10747 19-220); test: FACS, CD28.CHO-K1 cells, one antibody concentration (not given)
T8 construct: whole, on cells
Protocol: as §3

[10] = biological target: T3, mouse PD-1 on transfected 293F cells; test: FACS blocking assay: mouse Fc fusion-mouse PD-L1 binding to mouse PD-1 transfected 293F cells
[11] = biological target: T3, mouse PD-1 on transfected 293F cells; test: FACS, mouse PD-1 transfected 293F cells
[12] = biological target: T7, human PD-1 on transfected cells; test: FACS competition on CHO-S cells expressing human PD-1 against biotinylated WBP305BMK1 at 1 µg/ml
Protocol: as §5

[13] = biological target: T7, human PD-1 on transfected cells; test: FACS, human PD-1 transfected CHO-S cells
[14] = biological target: cynomolgus PD-1 antigen protein of the affinity-maturation screen (cynomolgus); test: capture ELISA, second-round affinity-maturation screen (scFv format likely); unit not given
[15] = biological target: T9, mouse PD-1 antigen protein of the affinity-maturation screen (mouse, UniProt Q02242 25-167, limits assumed, biotinylated); test: as above
T9 sequence (looked up): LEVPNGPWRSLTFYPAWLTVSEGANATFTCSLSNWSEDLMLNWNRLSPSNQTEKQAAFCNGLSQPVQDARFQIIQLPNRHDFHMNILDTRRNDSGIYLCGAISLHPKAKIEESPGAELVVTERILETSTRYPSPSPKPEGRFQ

[16] = biological target: human PD-1 antigen protein of the affinity-maturation screen (human, UniProt Q15116 25-167, limits assumed, biotinylated); test: as above
Chain of human PD-1 antigen protein of the affinity-maturation screen (Q15116 25-167 limits assumed): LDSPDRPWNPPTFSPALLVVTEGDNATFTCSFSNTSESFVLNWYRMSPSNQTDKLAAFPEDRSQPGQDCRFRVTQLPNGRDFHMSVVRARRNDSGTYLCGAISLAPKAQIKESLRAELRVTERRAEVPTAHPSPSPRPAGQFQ

T7 sequence (Q15116 25-288 limits assumed): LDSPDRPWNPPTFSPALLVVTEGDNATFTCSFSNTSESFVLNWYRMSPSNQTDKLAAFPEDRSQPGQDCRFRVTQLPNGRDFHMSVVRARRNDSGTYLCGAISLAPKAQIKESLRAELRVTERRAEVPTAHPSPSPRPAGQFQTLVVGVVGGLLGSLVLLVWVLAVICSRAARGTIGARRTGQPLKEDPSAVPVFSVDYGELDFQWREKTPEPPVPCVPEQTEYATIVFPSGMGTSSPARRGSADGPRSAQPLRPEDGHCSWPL
T1 sequence (Q15116 25-170): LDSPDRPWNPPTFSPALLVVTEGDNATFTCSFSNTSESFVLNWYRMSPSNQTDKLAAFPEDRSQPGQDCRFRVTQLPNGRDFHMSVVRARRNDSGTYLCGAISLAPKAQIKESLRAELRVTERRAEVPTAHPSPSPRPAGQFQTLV
Chain of cynomolgus PD-1 (Sino Biological), coated on plates (B0LAJ3 entry or part of it limits assumed): as the sequence (Q15116 25-170) above, with D2E, P10A, V19L, T35A, Q75R, T144A counted along it
T5 sequence (Q15116 25-167 limits assumed): as the sequence (Q15116 25-167 limits assumed) above
T4 sequence (P16410 36-223): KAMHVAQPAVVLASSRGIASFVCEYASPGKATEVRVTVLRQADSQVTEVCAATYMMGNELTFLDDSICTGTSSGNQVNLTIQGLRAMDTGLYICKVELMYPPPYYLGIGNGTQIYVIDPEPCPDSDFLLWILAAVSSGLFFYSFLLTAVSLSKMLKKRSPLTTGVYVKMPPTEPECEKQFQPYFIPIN

B1: 2E5 (antibody, human IgG4, V domains shown)
VH: QVQLVQSGAEVKKPGSSVKVSCKASGFTFTTYYISWVRQAPGQGLEYLGYINMGSGGTNYNEKFKGRVTITADKSTSTAYMELSSLRSEDTAVYYCAIIGYFDYWGQGTMVTVSS
VL: DVVMTQSPLSLPVTLGQPASISCRSSQSLLDSDGGTYLYWFQQRPGQSPRRLIYLVSTLGSGVPDRFSGSGSGTDFTLKISRVEAEDVGVYYCMQLTHWPYTFGQGTKLEIK
Kd (hPD-1.His): 6.13 nM
koff (hPD-1.His): 0.00366 s⁻¹
kon (hPD-1.His): 597000 M⁻¹ s⁻¹
Kd (mPD-1.His): 3.99 nM
koff (mPD-1.His): 0.00129 s⁻¹
kon (mPD-1.His): 323000 M⁻¹ s⁻¹
Kd [1]: 29 nM
binding result [2]: no binding
EC50 [3]: 0.18 nM
EC50 [4]: 0.37 nM
Kd [5]: 0.23 nM
IC50 [6]: 2.14 nM
IC50 [7]: 9.52 nM
EC50 [8]: 0.25 nM
binding result [9]: no binding
IC50 [10]: 13 nM
EC50 [11]: 12.9 nM
IC50 [12]: 5.84 nM
EC50 [13]: 2.2 nM
Bmax [14]: 1.72
Bmax [15]: 0.47
Bmax [16]: 3.28

B2: 2B1 (antibody, V domains shown)
VH: QVQLVQSGAEVKKPGSSVKVSCKASGFTFTTYYISWVRQAPGQGLEYLGYINMGSGGTNYNEKFKGRVTITADKSTSTAYMELSSLRSEDTAVYYCAIIGYFDYWGQGTMVTVSS
VL: DVVMTQSPLSLPVTLGQPASISCRSSQSLLDSDGNTYLYWFQQRPGQSPRRLIYLVSTLGSGVPDRFSGSGSGTDFTLKISRVEAEDVGVYYCMQLTHWPYTFGQGTKLEIK
Bmax [14]: 1.21
Bmax [15]: 0.339
Bmax [16]: 3.02

B4: 5C4 (antibody, V domains shown)
VH: QVQLVQSGAEVKKPGSSVKVSCKASGFTFTTYYISWVRQAPGQGLEYLGYINMGSGGTNYNEKFKGRVTITADKSTSTAYMELSSLRSEDTAVYYCAILGYFDYWGQGTMVTVSS
VL: DVVMTQSPLSLPVTLGQPASISCRSSQSLLDSDGQTYLYWFQQRPGQSPRRLIYLVSTLGSGVPDRFSGSGSGTDFTLKISRVEAEDVGVYYCMQLTHEPYTFGQGTKLEIK
Bmax [14]: 0.258
Bmax [15]: 0.164
Bmax [16]: 2.65

B5: 1H6 (antibody, human IgG4, V domains shown)
VH: QVQLVQSGAEVKKPGSSVKVSCKASGFTFTTYYISWVRQAPGQGLEYLGYINMGSGGTNYNEKFKGRVTITADKSTSTAYMELSSLRSEDTAVYYCAILGYFDYWGQGTMVTVSS
VL: DVVMTQSPLSLPVTLGQPASISCRSSQSLLDSDGGTYLYWFQQRPGQSPRRLIYLVSTLGSGVPDRFSGSGSGTDFTLKISRVEAEDVGVYYCMQLTHWPYTFGQGTKLEIK
Kd (hPD-1.His): 14.3 nM
koff (hPD-1.His): 0.00918 s⁻¹
kon (hPD-1.His): 644000 M⁻¹ s⁻¹
Kd (mPD-1.His): 9.37 nM
koff (mPD-1.His): 0.003 s⁻¹
kon (mPD-1.His): 320000 M⁻¹ s⁻¹
Kd [1]: 53.9 nM
binding result [2]: no binding
EC50 [3]: 0.2 nM
EC50 [4]: 0.34 nM
Kd [5]: 0.215 nM
IC50 [6]: 2.22 nM
IC50 [7]: 17.6 nM
EC50 [8]: 0.28 nM
binding result [9]: no binding
IC50 [10]: 20.4 nM
EC50 [11]: 15.1 nM
IC50 [12]: 8.77 nM
EC50 [13]: 2.64 nM
Bmax [14]: 0.317
Bmax [15]: 0.221
Bmax [16]: 3.35

B8: 1G10 (antibody, V domains shown)
VH: QVQLVQSGAEVKKPGSSVKVSCKASGFTFTTYYISWVRQAPGQGLEYLGYINMGSGGTNYNEKFKGRVTITADKSTSTAYMELSSLRSEDTAVYYCAILGYFDYWGQGTMVTVSS
VL: DVVMTQSPLSLPVTLGQPASISCRSSQSLLDSDGATYLYWFQQRPGQSPRRLIYLVSTLGSGVPDRFSGSGSGTDFTLKISRVEAEDVGVYYCMQLTHWPYTFGQGTKLEIK
Bmax [14]: 1.08
Bmax [15]: 0.3
Bmax [16]: 2.6

More lines, now with the values ahead:

Bmax [14]: 1.11
Bmax [15]: 0.437
Bmax [16]: 2.31
B3: 8C10 (antibody, V domains shown)
VH: QVQLVQSGAEVKKPGSSVKVSCKASGFTFTTYYISWVRQAPGQGLEYLGYINMGSGGTNYNEKFKGRVTITADKSTSTAYMELSSLRSEDTAVYYCAIIGYFDYWGQGTMVTVSS
VL: DVVMTQSPLSLPVTLGQPASISCRSSQSLLDSDGQTYLYWFQQRPGQSPRRLIYLVSTLGSGVPDRFSGSGSGTDFTLKISRVEAEDVGVYYCMQLTHENYTFGQGTKLEIK

Bmax [14]: 0.0787
Bmax [15]: 0.174
Bmax [16]: 2.57
B6: A6W (antibody, V domains shown)
VH: QVQLVQSGAEVKKPGSSVKVSCKASGFTFTTYYISWVRQAPGQGLEYLGYINMGSGGTNYNEKFKGRVTITADKSTSTAYMELSSLRSEDTAVYYCAILGYFDYWGQGTMVTVSS
VL: DVVMTQSPLSLPVTLGQPASISCRSSQSLLDSDGNTYLYWFQQRPGQSPRRLIYLVSTLGSGVPDRFSGSGSGTDFTLKISRVEAEDVGVYYCMQLTHWPYTFGQGTKLEIK

Bmax [14]: 0.0517
Bmax [16]: 1.05
B7: L1I (antibody, V domains shown)
VH: QVQLVQSGAEVKKPGSSVKVSCKASGFTFTTYYISWVRQAPGQGLEYLGYINMGSGGTNYNEKFKGRVTITADKSTSTAYMELSSLRSEDTAVYYCAIIGYFDYWGQGTMVTVSS
VL: DVVMTQSPLSLPVTLGQPASISCRSSQSLLDSDGNTYLYWFQQRPGQSPRRLIYLVSTLGSGVPDRFSGSGSGTDFTLKISRVEAEDVGVYYCMQLTHAPYTFGQGTKLEIK
notes: also called L11
